Reference: patent US9340579B2, “DPP-4 inhibitor” (NIPPI, INCORPORATED, priority 2011, dated 2016)
Like-named read-outs stand apart in the source and are kept apart here. One block for each molecule: values may come before it. Square brackets hold non-standard residues; d marks the D form. Ends that are not written are not given here. Peptide text beside a SMILES is read from it. Hyp = O=C(O)[C@@H]1C[C@@H](O)CN1

Tests used:
[1] = biological target: T1, DPP-4 (manufactured by Sigma, derived from porcine kidney) (Sus scrofa, UniProt P22411); test: DPP-4 inhibition rate and IC50 measurement, fluorescence of AMC freed from Gly-Pro-MCA; type: biochemical; conditions: for inhibition at 350 µg/mL / Inhibition rate (%) at 0.35 mg/ml time: sample 0.35 mg/ml, substrate Gly-Pro-MCA, pH 7.5, 37° C.; for inhibition at 350 µg/mL: read-out: Inhibition rate (%) at 0.35 mg/ml time
T1 construct: derived from porcine kidney; purchased Sigma; host or cells: porcine kidney (tissue-derived)
Experimental: A sample liquid 35 μl obtained by dissolving a sample 1 mg in 50 mM tris-hydrochloric acid buffer (pH 7.5) 1 ml and DPP-4 (manufactured by Sigma, derived from porcine kidney; 8.6 mU/ml) 15 μl that had been dissolved in 50 mM tris-hydrochloric acid buffer (pH 7.5) were mixed in a microtiter plate well (manufactured by NUNC, trade name “237015”) and incubated at 37° C. for 10 minutes.
Thereto, 50 μl of a substrate solution (one obtained by dissolving glycyl-Pro-4-methylcoumarin-7-amide (Gly-Pro-MCA) in 50 mM tris-hydrochloric acid buffer (pH 7.5) so as to be 10 μM) that had in advance heated to and kept at 37° C. was added, mixed, and allowed to react at 37° C. for 20 minutes.
The fluorescence intensity of 7-amino-4-methylcoumarin (AMC) that was freed by DPP-4 was measured with time by a microplate reader type fluorescence detector (manufactured by Corona Electric Co., Ltd., trade name “SH-9000”). Note that the measurement wavelength was an excitation wavelength of 380 nm and a measurement wavelength of 460 nm. Note that one obtained by using the same amount of 50 mM tris-hydrochloric acid buffer (pH 7.5) in replace of the sample was used as a control; and the fluorescence intensity thereof was measured.
The activity of DPP-4 was expressed by an average gradient of change in the amount of the fluorescence intensity during the reaction time; and, as for DPP-4 inhibition rate, difference obtained by, with the control as 100%, subtracting the activity of the sample from the above-mentioned control was calculated as an inhibition rate (%).
In accordance with the above method of measuring a DPP-4 inhibition rate, sample concentration was changed between 0.001 and 7.2 μmol/ml to obtain the inhibition rate, thereby calculating the 50% inhibitory concentration (IC50 value) of the activity of DPP-4.

[2] = biological target: T2, DPP-4 (manufactured by Sigma, derived from porcine kidney) (porcine, UniProt P22411 38-766, limits assumed); test: cell-based or functional assay
[3] = biological target: T2, DPP-4 (manufactured by Sigma, derived …); test: cell-based or functional assay; remark: listed apart in the source
[4] = Table 1, sample concentration changed between 0.001 and 7.2 μmol/ml, read-out: IC50 value
[5] = Table 2, sample concentration changed between 0.001 and 7.2 μmol/ml, read-out: IC50 value
[6] = Table 1, sample concentration changed between 0.001 and 7.2 μmol/ml

T1 sequence (P22411 whole entry): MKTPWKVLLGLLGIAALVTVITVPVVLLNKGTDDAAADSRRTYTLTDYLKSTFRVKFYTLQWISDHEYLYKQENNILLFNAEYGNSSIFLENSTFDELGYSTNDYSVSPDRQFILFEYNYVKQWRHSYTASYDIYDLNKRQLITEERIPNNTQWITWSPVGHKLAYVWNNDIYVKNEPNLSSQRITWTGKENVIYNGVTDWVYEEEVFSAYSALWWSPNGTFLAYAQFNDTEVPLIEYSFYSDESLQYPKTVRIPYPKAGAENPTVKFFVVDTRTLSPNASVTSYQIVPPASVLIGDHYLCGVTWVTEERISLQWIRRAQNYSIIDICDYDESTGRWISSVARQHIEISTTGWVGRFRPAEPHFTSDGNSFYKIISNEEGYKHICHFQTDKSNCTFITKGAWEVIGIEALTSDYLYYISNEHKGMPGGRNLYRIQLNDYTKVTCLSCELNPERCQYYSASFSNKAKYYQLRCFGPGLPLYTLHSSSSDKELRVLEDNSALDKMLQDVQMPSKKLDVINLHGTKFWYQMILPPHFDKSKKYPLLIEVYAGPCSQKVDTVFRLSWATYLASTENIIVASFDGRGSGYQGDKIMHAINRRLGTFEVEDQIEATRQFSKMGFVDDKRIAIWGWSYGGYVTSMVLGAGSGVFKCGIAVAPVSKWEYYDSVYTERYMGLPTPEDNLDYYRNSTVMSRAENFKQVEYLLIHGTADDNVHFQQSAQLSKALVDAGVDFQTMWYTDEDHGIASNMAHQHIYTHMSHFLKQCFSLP
T2 sequence (P22411 38-766 limits assumed): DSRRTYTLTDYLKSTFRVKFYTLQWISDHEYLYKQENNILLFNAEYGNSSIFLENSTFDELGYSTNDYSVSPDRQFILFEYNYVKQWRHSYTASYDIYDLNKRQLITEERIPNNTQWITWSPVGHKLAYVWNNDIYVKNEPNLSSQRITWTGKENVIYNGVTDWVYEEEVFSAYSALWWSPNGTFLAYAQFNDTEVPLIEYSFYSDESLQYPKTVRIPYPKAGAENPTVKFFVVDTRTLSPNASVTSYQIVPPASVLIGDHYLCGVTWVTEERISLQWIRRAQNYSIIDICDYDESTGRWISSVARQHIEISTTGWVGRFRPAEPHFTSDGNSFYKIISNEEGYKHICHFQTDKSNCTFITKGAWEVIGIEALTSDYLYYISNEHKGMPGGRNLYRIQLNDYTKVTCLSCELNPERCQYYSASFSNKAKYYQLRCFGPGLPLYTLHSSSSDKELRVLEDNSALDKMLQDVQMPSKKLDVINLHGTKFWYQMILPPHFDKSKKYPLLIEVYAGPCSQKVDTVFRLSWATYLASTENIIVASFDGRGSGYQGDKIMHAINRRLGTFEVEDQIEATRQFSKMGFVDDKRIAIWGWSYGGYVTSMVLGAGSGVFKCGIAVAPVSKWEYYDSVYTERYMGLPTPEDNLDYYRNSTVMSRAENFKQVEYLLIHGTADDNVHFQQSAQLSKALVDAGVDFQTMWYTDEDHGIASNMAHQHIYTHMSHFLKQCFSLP

Molecule: C[C@H](NC(=O)[C@@H]1CCCN1C(=O)CN)C(=O)NCC(=O)N1CCC[C@H]1C(=O)N1C[C@H](O)C[C@H]1C(=O)O [Example 3, Gly-Pro-Ala-Gly-Pro-Hyp] (H-GPAGP[Hyp]-OH; N-terminus and C-terminus assumed)
IC50 [1, 4]: 70 µM

Molecule: C[C@H](NC(=O)[C@@H]1CCCN1C(=O)CN)C(=O)NCC(=O)O [Example 9, Gly-Pro-Ala-Gly] (H-GPAG-OH; N-terminus and C-terminus assumed)
IC50 [1, 4]: 150 µM

Molecule: C[C@H](NC(=O)CN)C(=O)O [Example 11, Gly-Ala] (H-Gly-Ala-OH; N-terminus and C-terminus assumed)
inhibition at 350 µg/mL ([1]; Table 1): 42.5% | IC50 [1, 4]: 3340 µM

Molecule: CC(C)C[C@H](N)C(=O)N1CCC[C@H]1C(=O)O [Example 16, Leu-Pro] (H-Leu-Pro-OH; N-terminus and C-terminus assumed)
inhibition at 350 µg/mL ([1]; Table 2): 92.1% | IC50 [1, 5]: 110 µM

Molecule: CC(C)C[C@H](N)C(=O)N1C[C@H](O)C[C@H]1C(=O)O [Example 20, Leu-Hyp] (H-Leu-[Hyp]-OH)
inhibition at 350 µg/mL ([1]; Table 2): 48.6%

Molecule: CC(C)C[C@H](N)C(=O)N1C[C@H](O)C[C@H]1C(=O)NCC(=O)O [Example 21, Leu-Hyp-Gly] (H-Leu-[Hyp]-Gly-OH)
inhibition at 350 µg/mL ([1]; Table 2): 89.3% | IC50 [1, 5]: 130 µM

Molecule: CC[C@H](C)[C@H](N)C(=O)N1C[C@H](O)C[C@H]1C(=O)NCC(=O)O [Example 22, Ile-Hyp-Gly] (H-Ile-[Hyp]-Gly-OH; N-terminus and C-terminus assumed)
inhibition at 350 µg/mL ([1]; Table 2): 71% | IC50 [1, 5]: 500 µM

Molecule: CC(C)C[C@H](N)C(=O)N1C[C@H](O)C[C@H]1C(=O)NCC(=O)N1CCC[C@H]1C(=O)N[C@@H](C)C(=O)O [Example 23, Leu-Hyp-Gly-Pro-Ala] (H-L[Hyp]GPA-OH)
inhibition at 350 µg/mL ([1]; Table 2): 52.1% | IC50 [1, 5]: 830 µM

Molecule: O=C(O)CNC(=O)[C@@H]1C[C@@H](O)CN1C(=O)[C@@H]1CCCN1 [Example 24, Pro-Hyp-Gly] (H-Pro-[Hyp]-Gly-OH; N-terminus and C-terminus assumed)
inhibition at 350 µg/mL ([1]; Table 2): 27.2% | IC50 [1, 5]: 4640 µM

Molecule: C[C@H](N)C(=O)N1C[C@H](O)C[C@H]1C(=O)NCC(=O)O [Example 25, Ala-Hyp-Gly] (H-Ala-[Hyp]-Gly-OH; N-terminus and C-terminus assumed)
inhibition at 350 µg/mL ([1]; Table 2): 14.6% | IC50 [1, 5]: 9450 µM

Molecule: GAIGPA [Example 12, Gly-Ala-Ile-Gly-Pro-Ala]
inhibition at 350 µg/mL ([1]; Table 1): 71.5% | IC50 [1, 4]: 285 µM

Molecule: GAIGPS [Example 13, Gly-Ala-Ile-Gly-Pro-Ser]
inhibition at 350 µg/mL ([1]; Table 1): 70.4% | IC50 [1, 4]: 314 µM

Molecule: GAVGP [Example 15, Gly-Ala-Val-Gly-Pro]
inhibition at 350 µg/mL ([1]; Table 1): 40.9% | IC50 [1, 4]: 1200 µM

Molecule: GAVGPA [Example 14, Gly-Ala-Val-Gly-Pro-Ala]
inhibition at 350 µg/mL ([1]; Table 1): 63.7% | IC50 [1, 4]: 437 µM

Molecule: GPAGPI [Example 4, Gly-Pro-Ala-Gly-Pro-Ile]
IC50 [1, 4]: 50 µM

Molecule: GPAGPR [Example 2, Gly-Pro-Ala-Gly-Pro-Arg]
IC50 [1, 4]: 80 µM

Molecule: GPIGPV [Example 6, Gly-Pro-Ile-Gly-Pro-Val]
IC50 [1]: 9.3 µM

Molecule: GPLGPV [Example 5, Gly-Pro-Leu-Gly-Pro-Val]
IC50 [1, 4]: 24 µM

Molecule: H-GPAGP-OH [Example 1, Gly-Pro-Ala-Gly-Pro]
inhibition at 350 µg/mL ([1]; Table 1): 95.8% | IC50 [1, 4]: 60 µM

Molecule: LPGPA [Example 18, Leu-Pro-Gly-Pro-Ala]
inhibition at 350 µg/mL ([1]; Table 2): 94.9% | IC50 [1, 5]: 63 µM

Molecule: GA [Gly-Ala]
IC50 value [2]: 3340 µM | Inhibition rate (%) at 0.35 mg/ml time [2]: 42.5%

Molecule: APG [Ala-Pro-Gly]
IC50 value [3]: 30 µM | Inhibition rate (%) at 0.35 mg/ml time [3]: 98.7%

More lines, now with the values ahead:

Inhibition rate (%) at 0.35 mg/ml time ([1]; Table 1): 0% | IC50 value [1, 6]: No inhibitory
Molecule: Gly-Ala-Hyp (Gly-Ala-[Hyp]) [compound 2, reference compound]

Inhibition rate (%) at 0.35 mg/ml time ([1]; Table 1): 0% | IC50 value [1, 6]: No inhibitory
Molecule: Gly-Pro-Hyp (Gly-Pro-[Hyp]) [Comparative Example 1, reference compound]

IC50 value [2]: 50 µM
Molecule: GPAGPI [Gly-Pro-Ala-Gly-Pro-Ile]

IC50 value [2]: 285 µM | Inhibition rate (%) at 0.35 mg/ml time [2]: 71.5%
Molecule: GAIGPA [Gly-Ala-Ile-Gly-Pro-Ala]

IC50 value [2]: 9.3 µM
Molecule: GPIGPV [Gly-Pro-Ile-Gly-Pro-Val]

IC50 value [3]: 1320 µM | Inhibition rate (%) at 0.35 mg/ml time [3]: 48.6%
Molecule: Leu-[Hyp] [Leu-Hyp]

IC50 value [2]: 78200 µM | Inhibition rate (%) at 0.35 mg/ml time [2]: 10.2%
Molecule: GPP [Gly-Pro-Pro]

Inhibition rate (%) at 0.35 mg/ml time [2]: 0%
Molecule: Gly-Pro-[Hyp] [Gly-Pro-Hyp]

IC50 value [2]: 1200 µM | Inhibition rate (%) at 0.35 mg/ml time [2]: 40.9%
Molecule: GAVGP [Gly-Ala-Val-Gly-Pro]

IC50 value [2]: 60 µM | Inhibition rate (%) at 0.35 mg/ml time [2]: 95.8%
Molecule: GPAGP [Gly-Pro-Ala-Gly-Pro]

IC50 value [2]: 24 µM
Molecule: GPLGPV [Gly-Pro-Leu-Gly-Pro-Val]

Inhibition rate (%) at 0.35 mg/ml time [2]: 0%
Molecule: Gly-Ala-[Hyp] [Gly-Ala-Hyp]

IC50 value [2]: 70 µM
Molecule: GPAGP[Hyp] [Gly-Pro-Ala-Gly-Pro-Hyp]

IC50 value [2]: 310 µM | Inhibition rate (%) at 0.35 mg/ml time [2]: 80.2%
Molecule: GPQ [Gly-Pro-Gln]

IC50 value [3]: 110 µM | Inhibition rate (%) at 0.35 mg/ml time [3]: 92.1%
Molecule: LP [Leu-Pro]

IC50 value [2]: 437 µM | Inhibition rate (%) at 0.35 mg/ml time [2]: 63.7%
Molecule: GAVGPA [Gly-Ala-Val-Gly-Pro-Ala]

IC50 value [3]: 50 µM
Molecule: LPG [Leu-Pro-Gly]

IC50 value [2]: 314 µM | Inhibition rate (%) at 0.35 mg/ml time [2]: 70.4%
Molecule: GAIGPS [Gly-Ala-Ile-Gly-Pro-Ser]

IC50 value [3]: 63 µM | Inhibition rate (%) at 0.35 mg/ml time [3]: 94.9%
Molecule: LPGPA [Leu-Pro-Gly-Pro-Ala]

IC50 value [2]: 370 µM | Inhibition rate (%) at 0.35 mg/ml time [2]: 76.5%
Molecule: GPV [Gly-Pro-Val]

IC50 value [3]: 130 µM | Inhibition rate (%) at 0.35 mg/ml time [3]: 89.3%
Molecule: Leu-[Hyp]-Gly [Leu-Hyp-Gly]

IC50 value [2]: 194 µM | Inhibition rate (%) at 0.35 mg/ml time [2]: 86.4%
Molecule: GPE [Gly-Pro-Glu]

IC50 value [2]: 150 µM
Molecule: GPAG [Gly-Pro-Ala-Gly]

IC50 value [2]: 80 µM
Molecule: GPAGPR [Gly-Pro-Ala-Gly-Pro-Arg]
